Measurements reported in PMC9948308, “DnaK and DnaJ proteins from Hsp70/40 family are involved in Rubisco biosynthesis in Synechocystis sp. PCC6803 and sustain the enzyme assembly in a heterologous system” (BMC Plant Biology, 2023).

T1: RbcL (Rubisco large subunit) from Synechocystis sp. PCC6803, unfolded, isolated from inclusion bodies (Synechocystis sp. PCC6803, UniProt P54205 1-470)
T1 chain: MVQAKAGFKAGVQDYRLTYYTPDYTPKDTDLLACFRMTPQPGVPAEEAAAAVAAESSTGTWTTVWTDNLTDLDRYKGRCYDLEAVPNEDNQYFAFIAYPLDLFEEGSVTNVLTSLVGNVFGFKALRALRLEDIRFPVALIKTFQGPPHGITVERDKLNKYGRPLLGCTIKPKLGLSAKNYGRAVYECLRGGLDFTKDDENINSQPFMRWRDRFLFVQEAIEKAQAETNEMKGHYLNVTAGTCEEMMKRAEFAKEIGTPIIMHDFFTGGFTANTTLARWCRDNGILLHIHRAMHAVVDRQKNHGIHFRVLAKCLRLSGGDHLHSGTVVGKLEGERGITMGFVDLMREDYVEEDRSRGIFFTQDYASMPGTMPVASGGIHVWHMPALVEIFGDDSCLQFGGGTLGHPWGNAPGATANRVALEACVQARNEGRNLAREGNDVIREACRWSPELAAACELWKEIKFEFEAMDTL

B1: RbcL (Rubisco large subunit) from Synechocystis sp. PCC6803, unfolded, isolated from inclusion bodies (natural protein, UniProt P54205 1-470, looked up)
chain: T1 chain
notes: Ribulose-1,5-bisphosphate carboxylase/oxygenase large subunit (RbcL), Synechocystis sp; PCC6803; used denatured/unfolded; Used as an unfolded protein diluted from GdnHCl; also called unfolded RbcL; denatured RbcL peptide; source: E. coli BL21 (DE3), purified from inclusion bodies, solubilized in 4 M GdnHCl
B2: DnaJ Sll1384 from Synechocystis sp. PCC6803, His-tagged (natural protein, UniProt P74157 1-314, looked up)
chain: MSSFPIKQGLFNYDVVDHHAILGCPLDATPEEIRKSYLKIAFQLHPDTSKATNEEEQALAAKLFSKFVNPAYEVLSRENDRKEHLLIIQQTVSNLASIGQPSFSSAESQKLQGAKQNLELVYRKVVTPLSKGLYEDFKTVFRKIAQVSEYNLIFLMVKGENASARPVFQTIASSKETVPPVVSGRSPQGPTPTPPINNPPAEELSPFEKSLRRAQENFDRRQYEKAIAELKSALKTDPKNAQAHCLLGMAYLKNNMMTMAKVHIGSAVKLDPNDPKVMAAKKELAKHTSSGSSQEGAKSSQGGFLGGLFGGKKK
modifications: RED-tris-NTA dye on the His-tag (MST only)
notes: DnaJ homolog Sll1384 (J domain plus C-terminal TPR domain), Synechocystis sp; PCC6803; gene amplified from total DNA with primers Fwsll1384 (NdeI-ATG) and Rvsll1384 (stop codon), cloned into pET16b; also called DnaJ Sll384; source: E. coli Lemo21, purified (Ni-NTA HisTrap, dialysis); not shown: His-tag, N-terminal, kept

Columns and labels:
[1] = biological target: T2, DnaK2 together with DnaJ Sll1384 (both tested chaperones, with ATP) in the MST titration (Synechocystis sp. PCC6803, UniProt P22358 1-636; P74157 1-314); assay: MST; His-tagged chaperone labelled with RED-tris-NTA (4 µM or 200 nM) and unfolded RbcL in PBS-T (0.1% Tween 20), with ATP; Monolith NT.115 pico; 1:1 binding model; conditions: both partners purified
T2 construct: DnaK2, Synechocystis sp; PCC6803, as the chain of m3; DnaJ Sll1384, Synechocystis sp; PCC6803, as the chain of m2; also called DnaK + DnaJ; source: E. coli Lemo21, each purified (Ni-NTA; DnaK2 also Superdex 200), mixed
T2 sequence (P22358 whole entry, one chain of several): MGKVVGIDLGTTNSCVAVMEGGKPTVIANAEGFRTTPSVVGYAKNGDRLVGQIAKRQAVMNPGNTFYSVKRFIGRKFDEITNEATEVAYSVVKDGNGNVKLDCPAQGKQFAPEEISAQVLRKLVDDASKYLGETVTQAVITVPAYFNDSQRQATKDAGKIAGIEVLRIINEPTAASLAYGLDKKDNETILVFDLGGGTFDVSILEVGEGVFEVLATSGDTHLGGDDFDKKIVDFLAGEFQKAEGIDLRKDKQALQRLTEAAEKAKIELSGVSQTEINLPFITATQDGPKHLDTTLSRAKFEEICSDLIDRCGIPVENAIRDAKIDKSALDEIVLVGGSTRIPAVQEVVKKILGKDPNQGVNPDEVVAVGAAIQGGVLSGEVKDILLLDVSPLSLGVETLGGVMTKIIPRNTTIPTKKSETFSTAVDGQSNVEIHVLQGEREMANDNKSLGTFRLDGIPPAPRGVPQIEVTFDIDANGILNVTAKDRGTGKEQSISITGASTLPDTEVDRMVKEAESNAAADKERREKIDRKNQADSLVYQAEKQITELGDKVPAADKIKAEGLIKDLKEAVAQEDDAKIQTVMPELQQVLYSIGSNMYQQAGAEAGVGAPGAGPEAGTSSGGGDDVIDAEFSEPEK

[2] = biological target: T3, DnaK2 from Synechocystis sp. PCC6803, His-tagged (Synechocystis sp. PCC6803, UniProt P22358 1-636, RED-tris-NTA dye on the His-tag (MST only)); assay: as above; conditions: both partners purified
T3 construct: Hsp70 chaperone DnaK2, Synechocystis sp; PCC6803; gene amplified from total DNA with primers Fwdnak2 (NdeI-ATG) and Rvdnak2 (stop codon), cloned into pET16b; source: E. coli Lemo21, purified (Ni-NTA HisTrap, Superdex 200); not shown: His-tag, N-terminal, kept
T3 sequence (P22358 whole entry): as the sequence (P22358 whole entry, one chain of several) above

[3] = biological target: B1; assay: as above; conditions: both partners purified
[4] = biological target: T1, RbcL (Rubisco large subunit) from …; assay: MST; with ATP

Binder	Kd [1] [nM]	Kd [2] [nM]	Kd [3] [nM]	Kd [4] [nM]
B1	31.1 ± 1.17	6050 ± 3410		
B2			1360 ± 2760	1.36
